From paper doi:10.1101/2021.03.17.435802

Key:
[1] = biological target: catalytically active ACE2-Fc (human) (UniProt Q9BYF1); assay: SPR
[2] = biological target: ACE2(HH:NN)-Fc (human) (UniProt Q9BYF1); assay: SPR

Work on Angiotensin II (peptide) yielded a Kd [1] of 0.117 µM and a Kd [2] of 1.3 µM.
